Data published in US20240158457A1 (MEDIKINE, published 2024).
Several values for one entry are separate records, joined by “and”; a condition that tells them apart may be missing. Equal entries are not always repeated. Where two headings read alike, the source gives them in different places. Where no end group is shown, it is not given here.

T1: human IL-18 receptor (alpha and beta subunits) on HEK-BLUE IL-18 reporter cells (human, UniProt Q13478 19-541; O95256 20-599)
T1 sequence (looked up) 1: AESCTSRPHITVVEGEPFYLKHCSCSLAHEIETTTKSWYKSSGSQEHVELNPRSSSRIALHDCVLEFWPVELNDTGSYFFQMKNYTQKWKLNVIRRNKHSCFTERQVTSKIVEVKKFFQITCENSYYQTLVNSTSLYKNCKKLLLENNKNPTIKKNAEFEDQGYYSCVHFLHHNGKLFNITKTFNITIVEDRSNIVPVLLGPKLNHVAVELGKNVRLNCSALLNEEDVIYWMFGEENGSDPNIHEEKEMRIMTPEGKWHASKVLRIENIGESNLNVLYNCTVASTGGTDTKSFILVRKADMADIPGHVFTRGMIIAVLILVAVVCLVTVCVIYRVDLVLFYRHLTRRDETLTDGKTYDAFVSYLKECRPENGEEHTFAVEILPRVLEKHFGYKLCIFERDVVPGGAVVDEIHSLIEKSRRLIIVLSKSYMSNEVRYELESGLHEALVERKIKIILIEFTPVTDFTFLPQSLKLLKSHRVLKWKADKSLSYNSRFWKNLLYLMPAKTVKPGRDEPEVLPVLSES
T1 sequence (looked up) 2: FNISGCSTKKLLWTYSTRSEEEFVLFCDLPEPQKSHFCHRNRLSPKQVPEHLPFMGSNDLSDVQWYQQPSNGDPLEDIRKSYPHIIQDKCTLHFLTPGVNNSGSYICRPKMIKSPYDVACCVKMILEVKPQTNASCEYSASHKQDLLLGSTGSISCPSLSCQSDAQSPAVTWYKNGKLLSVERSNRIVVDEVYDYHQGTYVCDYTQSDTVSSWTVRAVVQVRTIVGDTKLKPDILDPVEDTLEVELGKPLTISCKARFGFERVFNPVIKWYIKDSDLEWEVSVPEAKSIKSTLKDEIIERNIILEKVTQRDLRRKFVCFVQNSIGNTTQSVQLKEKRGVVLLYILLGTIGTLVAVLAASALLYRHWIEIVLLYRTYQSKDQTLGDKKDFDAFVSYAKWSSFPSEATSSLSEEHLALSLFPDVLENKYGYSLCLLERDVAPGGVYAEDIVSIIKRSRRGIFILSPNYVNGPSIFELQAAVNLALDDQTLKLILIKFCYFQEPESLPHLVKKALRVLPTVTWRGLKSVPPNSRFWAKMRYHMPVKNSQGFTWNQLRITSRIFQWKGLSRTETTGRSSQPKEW

T2: Human recombinant IL-18 (R&D Systems #9124-IL-050/CF) (human, UniProt Q14116 1-193)
T2 sequence: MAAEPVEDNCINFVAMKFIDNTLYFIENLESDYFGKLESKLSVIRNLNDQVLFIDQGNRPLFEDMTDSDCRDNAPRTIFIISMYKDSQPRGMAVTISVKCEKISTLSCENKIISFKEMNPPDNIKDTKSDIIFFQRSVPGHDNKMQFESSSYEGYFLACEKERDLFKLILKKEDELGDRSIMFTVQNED

B1: Dimer 1 (designed binder)
chain: GGCPNWLSDHLSEIWCPAPAPAPAPAPAPAPAICWVPFHYLDELMCTGG
modifications: not fully specified; cysteine pairing not given here; also: linker of formula V (drawing, may hold non-peptide parts) between beta and alpha moieties
B2: IL-18 Binding Protein (IL-18BP) Fc fusion (Fc fusion, not shown: a dimerising Fc or GST)
chain: TPVSQTTTAATASVRSTKDPCPSQPPVFPAAKQCPALEVTWPEVEVPLNGTLSLSCVACSRFPNFSILYWLGNGSFIEHLPGRLWEGSTSRERGSTGTQLCKALVLEQLTPALHSTNFSCVLVDPEQVVQRHVVLAQLWAGLRATLPPTQEALPSSHSSPQQQG
B3: Dimer 2 (designed binder)
chain: GGCPNWLSDHLSEIWCPAPAPAPAPAPAPAPAFFECFYSPGHEWCIPSGG
modifications: not fully specified; cysteine pairing not given here; also: linker of formula V (drawing, may hold non-peptide parts) between beta and alpha moieties
B4: Dimer 3 (designed binder)
chain: GGLCWYFGGTVRGPCLPAPAPAPAPAPAPAPAFFECFYSPGHEWCIPSGG
modifications: not fully specified; cysteine pairing not given here; also: linker of formula V (drawing, may hold non-peptide parts) between beta and alpha moieties
B5: biotinylated alpha synthetic F1a Consensus Construct (peptide)
peptide: GGELCWRPFSFVDCEEGG-biotin
modifications: cysteine pairing not given here
notes: also called bn-alpha synthetic F1a Consensus Construct; alpha synthetic F1 peptide, C-terminal biotinylated form
B6: biotinylated beta family 2 synthetic construct (peptide)
peptide: GGLCWYFGGTVRGPCLGG-biotin
modifications: cysteine pairing not given here
notes: also called bn-beta family 2 synthetic construct

Tests used:
[1] = biological target: T1, human IL-18 receptor (alpha and beta …); test: cell-based or functional assay
[2] = biological target: T2, Human recombinant IL-18 (R&D Systems …); test: cell-based or functional assay
[3] = biological target: T1, human IL-18 receptor (alpha and beta …); test: cell-based or functional assay; remark: listed apart in the source
[4] = biological target: B2; test: direct binding ELISA; biotinylated peptide on NeutrAvidin, IL-18BP Fc titrated, anti-human IgG Fc-HRP
Description: Binding of synthetic monomer peptides to IL-18 Binding Protein (IL-18BP) was measured using a direct binding ELISA. Briefly, 96-well ELISA plates were coated with NeutrAvidin (NA) at 5 μg per well in PBS, washed, then blocked with PBS containing 1% BSA. Wells were washed and representative peptides, synthesized with a C-terminal biotin were diluted to 300 nM in assay buffer and added to the NA coated wells. Wells were washed and serial dilutions starting at 100 nM of IL-18R subunits, IL-18BP from either of two sources (Acro #ILP-H5253 and R&D #119-BP), and control IgG Fc fusions) were added to the wells and incubated for 1 hr at 4° C. Then plates were washed and goat anti-human IgG Fc-HRP (Southern Biotech #2048-05) detection antibody was added for 1 hr. Wells were developed with TMB for 5-15 min and the enzyme reaction was stopped with a H₂SO₄ solution.

Binder	efficacy (% maximum signal (Emax) vs. IL-18 in reporter assay) [1] [%]	potency (EC50), HEK-BLUE IL-18 reporter assay (SEAP) [1]	binding result [4]	further results
B1	17	< 1000 nM		
B2				IC50, inhibition of IL-18 bioactivity in HEK-BLUE IL-18 reporter assay [2]: ~1 nM
B3	34	> 100 nM and < 300 nM		
B4	36	< 30 nM		potency (EC50), HEK-BLUE IL-18 reporter assay (SEAP) [3]: < 10 nM
GGICWVPFHYLDELMCTGG-biotin (cysteine pairing not given here, also called bn4D07) [biotinylated 4D07]			no binding (tested: 100 nM)	
GGFFECFYSPGHEWCIPSGG-biotin (cysteine pairing not given here, also called bn7C06) [biotinylated 7C06]			no binding (tested: 100 nM)	
B5			no binding (tested: 100 nM)	
B6			no binding (tested: 100 nM)	
GGCPNWLSDHLSEIWCGG-biotin (cysteine pairing not given here) [C-terminally biotinylated form of peptide 5C09]			no binding (tested: 100 nM)	
